The values below come from publication PMC4566977, “Identification and characterization of Arabidopsis AtNUDX9 as a GDP-d-mannose pyrophosphohydrolase: its involvement in root growth inhibition in response to ammonium” (Journal of Experimental Botany, 2015).

Substrate in the data set: Nc1nc2c(ncn2[C@@H]2O[C@H](COP(=O)(O)OP(=O)(O)O[C@H]3O[C@H](CO)[C@@H](O)[C@H](O)[C@@H]3O)[C@@H](O)[C@H]2O)c(=O)[nH]1
Put plainly: purified protein. It counts as biochemical, Arabidopsis thaliana. As to conditions: 50 mM Tris-HCl pH 8.0, 5 mM MgCl2, 37 °C, 10 min, GDP-D-Man 50 μM to 2 mM, apparent Km.

B1: AtNUDX9 (Arabidopsis thaliana) (protein)
chain: MAKLAEEMNPEGSRYQLLLSCPSGLSPSQVSVDFSKSHDRIPRQDPGLEDSISQVWEQRSQGNSSLFNGQKFRYGGYCLDDDDGSTNEVPHVCLRLGLTDYRTFVGTNLSSLWEKFLVTSEDDSVRCRHTSSPLGNGAVIETSDKKIIVLRRSNNVGEFPGHYVFPGGHPEPTAVGIDYHQLENNVQTGEVLNKKVTQEMFDSIICEVVEETGIPASSLSSPLFIGISRRELNVRPAMFFYLKCSHHSDDIQRLYSSAEDGFESTQLHTVSLDELKMMTSRMPGCHHGGFALYELMLQRLKNTKETSLIAT
notes: recombinant with hexahistidine tag (pCold II), expressed in E. coli BL21(DE3) pLysS, His Trap HP purified
As for B1, the Km was found to be 376 ± 24 µM, the Vmax was found to be 1.61 µmol/min/mg, the kcat stood at 0.93 ± 1.5 s⁻¹ and the kcat/Km amounted to 2400 M⁻¹ s⁻¹.

For orientation: Km means the substrate concentration at which the rate is half of its maximum. One may read the Vmax as the top rate of the reaction or transport when substrate is in excess. The kcat is the maximal rate divided by the concentration of active sites. A word on the kcat/Km: it is the second-order rate constant that governs catalysis at low substrate concentration.
